Data taken from paper PMC12133150.

Target: TET2 (UniProt Q6N021)
Test: co-IP of transfected HNF4α with TET2
Conditions: reference: wild type; sites S313

HNF4α (from UniProt P41235) S313A
binding against the reference: stronger
